In patent publication US20200055951A1 (DONG A UNIVERSITY RESEARCH FOUNDATION FOR INDUSTRY ACADEMY …, published 2020):
Substitutions are numbered along the chain they refer to.

T1: PAUF-His protein (UniProt Q96DA0 17-172, limits assumed)
T1 construct: not shown: His tag
T1 sequence (looked up): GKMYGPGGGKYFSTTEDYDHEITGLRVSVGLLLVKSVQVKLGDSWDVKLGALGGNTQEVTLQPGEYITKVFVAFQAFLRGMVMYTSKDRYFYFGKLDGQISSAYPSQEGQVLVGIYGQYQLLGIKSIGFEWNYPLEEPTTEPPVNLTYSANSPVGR

T2: pancreatic adenocarcinoma upregulated factor (PAUF) protein (UniProt Q96DA0 17-172, limits assumed)
T2 construct: no tag is mentioned there; also called Antigen PAUF
T2 sequence (looked up): T1 sequence (looked up)

B1: cPMAb22 (chimeric antibody of 2H2) (antibody, V domains shown)
VH: QVQLKQSGAELVRPGALVKLSCKASGFNIKDYYMHWVKQRPEQGLEWIGWIDPENGNTIYDPKFQGKASITADTSSNTAYLQLSSLTSEDTAVYYCARRAITTATAWFAYWGQGTLVTVSA
VL: DIVMTQSPSSLAVSAGEKVTMSCKSSQSLLNSRTRKNYLAWYQQKPGQSPKLLIYWASTRESGVPDRFTGSGSGTDFTLTISSVQAEDLAVYYCKQSYNLYTFGAGTKLELK
notes: Mouse variable regions of 2H2 on human heavy and light chain constant regions (kappa light chain implied by the anti-human kappa secondary antibody); Expressed in HEK293 cells
B2: cPMAb205 (chimeric antibody of 20C5) (antibody, V domains shown)
VH: QVQLKESGAELVRPGALVKLSCKASGFNIKDYYMHWVKQRPEQGLEWIGWIDPEHGNTIYDPKFQGKASLTADTSSNTAYLQLSSLTSEDTAVYYCARRGWLPAWFAYWGQGTLVTVSA
VL: B1 VL with M21L, A105G, L111I
notes: Mouse variable regions of 20C5 on human heavy and light chain constant regions (kappa light chain implied by the anti-human kappa secondary antibody); Expressed in HEK293 cells
B3: 2H2 (anti-PAUF protein mouse antibody) (antibody, V domains shown)
VH: B1 VH
VL: B1 VL
notes: Mouse monoclonal antibody; also called 21-12 [sic]
B4: 20C5 (anti-PAUF protein mouse antibody) (antibody, V domains shown)
VH: B2 VH
VL: B1 VL with M21L, A105G, L111I
notes: Mouse monoclonal antibody
B5: hPMAb22 (anti-PAUF protein humanized antibody) (antibody, V domains shown)
VH: QVQLVQSGAEVKKPGASVKVSCKASGFNIKDYYMHWVRQAPGQGLEWMGWIDPENGNTNYAQKFQGRVTMTRDTSISTAYMELSRLRSDDTAVYYCARRAITTATAWFAYWGQGTLVTVSS
VL: DIVMTQSPDSLAVSLGERATINCKSSQSLLNSRTRKNYLAWYQQKPGQPPKLLIYWASTRESGVPDRFSGSGSGTDFTLTISSLQAEDVAVYYCKQSYNLYTFGQGTKVEIK
notes: CDR-grafted humanized antibody with human constant regions; Expressed in HEK293 cells; also called 2H2-VH1/VL1; 2H2-VH1-VL1

What was measured:
PAUF-His protein = target: T1, PAUF-His protein; test: indirect ELISA titration on PAUF-His, anti-human Fc-HRP; column head Kd (10^-9 M)
Experimental: Specifically, indirect ELISA was performed. An immuno-plate was coated with the PAUF-His protein and treated with each antibody at different concentrations, and the results were analyzed using the anti-human Fc-HRP capable of recognizing the constant region of human antibody as the secondary antibody. In particular, as the concentration of each antibody increases, the OD value increases.

[1] = target: T2, pancreatic adenocarcinoma upregulated …; test: indirect ELISA, PAUF-coated plate, HRP-labeled anti-mouse antibody
Experimental: Specifically, the affinity of the antigen-antibody was tested using indirect ELISA. The PAUF-coated immuno-plate was treated with the four kinds of antibodies (2H2, 4E6, 11 G6, and 20C5) at different concentrations and the OD values were measured using the HRP-labeled anti-mouse antibody. In particular, as the OD value becomes higher, the affinity of the antibody for the PAUF becomes higher. Additionally, for the measurement of the nonspecific binding of an anti-PAUF mouse monoclonal antibody, which has a high affinity for PAUF, to other antigenic proteins, the immuno-plate was coated with PAUF and unspecified antigens so as to perform indirect ELISA.

[2] = target: T2, pancreatic adenocarcinoma upregulated …; test: SPR, PAUF immobilized, antibody in flow at different concentrations
Experimental: Specifically, the antigen-antibody binding affinity was measured using the SPR method. Antigen PAUF was immobilized on the surface of a thin metal film and the antibody was diluted at different concentrations and allowed to pass through the metal surface. The antigen-antibody binding affinity was measured by measuring the time required for binding and dissociation between antigens and antibodies.

Binder | Kd (PAUF-His protein) | EC50 (read off the curve) [1] | also measured
B1 | 0.01 nM | – | –
B2 | 0.03 nM | – | –
B3 | – | ~0.05 µg/mL | –
B4 | – | ~0.02 µg/mL | –
B5 | – | – | Kd [2]: 0.194 nM
